{"source": "patent US20250282868A1", "key": {"[1]": {"target": "mouse TREM2 (mouse) (UniProt Q99NH8)", "sequence (Q99NH8 19-227)": "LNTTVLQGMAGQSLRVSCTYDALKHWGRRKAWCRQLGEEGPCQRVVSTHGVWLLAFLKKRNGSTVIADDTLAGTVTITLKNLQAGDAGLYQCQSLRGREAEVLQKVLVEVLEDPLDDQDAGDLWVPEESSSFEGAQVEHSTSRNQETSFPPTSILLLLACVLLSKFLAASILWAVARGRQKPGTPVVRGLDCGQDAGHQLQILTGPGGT", "assay": "MFI on CT26 cells over-expressing mouse TREM2 and DAP12; control in the row of Ab52"}, "[2]": {"target": "mouse TREM2 (mouse) (UniProt Q99NH8)", "assay": "MFI on CT26 cells over-expressing mouse TREM2 and DAP12; control in the row of EOS006176"}, "[3]": {"target": "mouse TREM2 (mouse) (UniProt Q99NH8)", "assay": "MFI on CT26 cells over-expressing mouse TREM2 and DAP12; control in the row of EOS006167"}, "[4]": {"target": "mouse TREM2 (mouse) (UniProt Q99NH8)", "assay": "MFI on CT26 cells over-expressing mouse TREM2 and DAP12; control in the row of EOS006179"}, "[5]": {"target": "mouse TREM2 (mouse) (UniProt Q99NH8)", "assay": "MFI on CT26 cells over-expressing mouse TREM2 and DAP12; control in the row of EOS006175"}, "[6]": {"target": "mouse TREM2 (mouse) (UniProt Q99NH8)", "assay": "MFI on CT26 cells over-expressing mouse TREM2 and DAP12; control in the row of EOS006178"}, "[7]": {"target": "mouse TREM2 (mouse) (UniProt Q99NH8)", "assay": "MFI on CT26 cells over-expressing mouse TREM2 and DAP12; control in the row of EOS006172"}, "[8]": {"target": "mouse TREM2 (mouse) (UniProt Q99NH8)", "assay": "MFI on CT26 cells over-expressing mouse TREM2 and DAP12; control in the row of EOS006173"}, "[9]": {"target": "mouse TREM2 (mouse) (UniProt Q99NH8)", "assay": "MFI on CT26 cells over-expressing mouse TREM2 and DAP12; control in the row of EOS006181"}, "[10]": {"target": "mouse TREM2 (mouse) (UniProt Q99NH8)", "assay": "MFI on CT26 cells over-expressing mouse TREM2 and DAP12; control in the row of EOS006174"}, "[11]": {"target": "mouse TREM2 (mouse) (UniProt Q99NH8)", "assay": "MFI on CT26 cells over-expressing mouse TREM2 and DAP12; control in the row of EOS006168"}, "[12]": {"target": "mouse TREM2 (mouse) (UniProt Q99NH8)", "assay": "MFI on CT26 cells over-expressing mouse TREM2 and DAP12; control in the row of EOS006162"}, "[13]": {"target": "mouse TREM2 (mouse) (UniProt Q99NH8)", "assay": "MFI on CT26 cells over-expressing mouse TREM2 and DAP12; control in the row of EOS006170"}, "[14]": {"target": "mouse TREM2 (mouse) (UniProt Q99NH8)", "assay": "MFI on CT26 cells over-expressing mouse TREM2 and DAP12; control in the row of EOS006165"}, "[15]": {"target": "mouse TREM2 (mouse) (UniProt Q99NH8)", "assay": "MFI on CT26 cells over-expressing mouse TREM2 and DAP12; control in the row of EOS006166"}, "[16]": {"target": "mouse TREM2 (mouse) (UniProt Q99NH8)", "assay": "MFI on CT26 cells over-expressing mouse TREM2 and DAP12; control in the row of EOS006163"}, "[17]": {"target": "mouse TREM2 (mouse) (UniProt Q99NH8)", "assay": "MFI on CT26 cells over-expressing mouse TREM2 and DAP12; control in the row of PN-37012"}, "[18]": {"target": "mouse TREM2 (mouse) (UniProt Q99NH8)", "assay": "MFI on CT26 cells over-expressing mouse TREM2 and DAP12; control in the row of EOS006177"}, "[19]": {"target": "mouse TREM2 (mouse) (UniProt Q99NH8)", "assay": "MFI on CT26 cells over-expressing mouse TREM2 and DAP12; control in the row of EOS006164"}, "[20]": {"target": "mouse TREM2 (mouse) (UniProt Q99NH8)", "assay": "MFI on CT26 cells over-expressing mouse TREM2 and DAP12; control in the row of EOS006169"}, "[21]": {"target": "mouse TREM2 (mouse) (UniProt Q99NH8)", "assay": "MFI on CT26 cells over-expressing mouse TREM2 and DAP12; control in the row of EOS006180"}}}
{"substance": "Isotype control (antibody)", "values": [{"measurement": "Isotype control on CT26-TREM2 MFI", "setting": "[1]", "result": 402, "unit": "MFI"}, {"measurement": "Isotype control on CT26-TREM2 MFI", "setting": "[2]", "result": 345, "unit": "MFI"}, {"measurement": "Isotype control on CT26-TREM2 MFI", "setting": "[3]", "result": 2170, "unit": "MFI"}, {"measurement": "Isotype control on CT26-TREM2 MFI", "setting": "[4]", "result": 679, "unit": "MFI"}, {"measurement": "Isotype control on CT26-TREM2 MFI", "setting": "[5]", "result": 679, "unit": "MFI"}, {"measurement": "Isotype control on CT26-TREM2 MFI", "setting": "[6]", "result": 345, "unit": "MFI"}, {"measurement": "Isotype control on CT26-TREM2 MFI", "setting": "[7]", "result": 2170, "unit": "MFI"}, {"measurement": "Isotype control on CT26-TREM2 MFI", "setting": "[8]", "result": 679, "unit": "MFI"}, {"measurement": "Isotype control on CT26-TREM2 MFI", "setting": "[9]", "result": 345, "unit": "MFI"}, {"measurement": "Isotype control on CT26-TREM2 MFI", "setting": "[10]", "result": 345, "unit": "MFI"}, {"measurement": "Isotype control on CT26-TREM2 MFI", "setting": "[11]", "result": 2170, "unit": "MFI"}, {"measurement": "Isotype control on CT26-TREM2 MFI", "setting": "[12]", "result": 2170, "unit": "MFI"}, {"measurement": "Isotype control on CT26-TREM2 MFI", "setting": "[13]", "result": 679, "unit": "MFI"}, {"measurement": "Isotype control on CT26-TREM2 MFI", "setting": "[14]", "result": 2170, "unit": "MFI"}, {"measurement": "Isotype control on CT26-TREM2 MFI", "setting": "[15]", "result": 295, "unit": "MFI"}, {"measurement": "Isotype control on CT26-TREM2 MFI", "setting": "[16]", "result": 402, "unit": "MFI"}, {"measurement": "Isotype control on CT26-TREM2 MFI", "setting": "[17]", "result": 302, "unit": "MFI"}, {"measurement": "Isotype control on CT26-TREM2 MFI", "setting": "[18]", "result": 345, "unit": "MFI"}, {"measurement": "Isotype control on CT26-TREM2 MFI", "setting": "[19]", "result": 345, "unit": "MFI"}, {"measurement": "Isotype control on CT26-TREM2 MFI", "setting": "[20]", "result": 679, "unit": "MFI"}, {"measurement": "Isotype control on CT26-TREM2 MFI", "setting": "[21]", "result": 2170, "unit": "MFI"}]}
